What was measured:
[1] = target: LDL receptor (LDLR) on human glioblastoma multiforme cells (human) (UniProt P01130); experiment: ^125I-LDL saturation binding to U-343 MG cells
[2] = target: LDL receptor (LDLR) on human glioblastoma multiforme cells (human) (UniProt P01130); experiment: ^125I-LDL saturation binding to SF-763 cells
[3] = target: LDL receptor (LDLR) on human glioblastoma multiforme cells (human) (UniProt P01130); experiment: ^125I-LDL saturation binding to A-172 cells
[4] = target: LDL receptor (LDLR) on human glioblastoma multiforme cells (human) (UniProt P01130); experiment: ^125I-LDL saturation binding to SF-767 cells
[5] = target: LDL receptor (LDLR) on human glioblastoma multiforme cells (human) (UniProt P01130); experiment: ^125I-LDL saturation binding to SF-539 cells
[6] = target: LDL receptor (LDLR) on human glioblastoma multiforme cells (human) (UniProt P01130); experiment: ^125I-LDL saturation binding to U-251 MG cells (average of 2 experiments)

## native plasma LDL (low density lipoprotein; LDLR ligand apoB100 on its surface), P04114 28-4563
[1]
  Bmax (ng/mg cell protein): 510
[2]
  Bmax (ng/mg cell protein): 900
[3]
  Bmax (ng/mg cell protein): 1400
[4]
  Bmax (ng/mg cell protein): 793
[5]
  Bmax (ng/mg cell protein): 310
[6]
  Bmax (ng/mg cell protein): 225
